Laboratory results: patent US20140080766

Test system: E6N2 (E6 Fn3-mouse IgG2a Fc-human PKR dsRBD fusion, homodimer) C121V,C135V (in dsRBD) (Homo sapiens)
Assay: flow
Conditions: KD,app; E6N2 on Protein A beads; DMEM+10% FBS, 37 C, 1 h; pH presumably 7.4; avidity from bivalent dsRBD

## AllStars Negative Control siRNA (Qiagen)
  Kd: 3.5 nM
